Measured values taken from IntAct's records for PubMed 16525023.

B1: 1-phosphatidylinositol 4,5-bisphosphate phosphodiesterase gamma-1 (Homo sapiens), P19174 (parent)
chain: MAGAASPCANGCGPGAPSDAEVLHLCRSLEVGTVMTLFYSKKSQRPERKTFQVKLETRQITWSRGADKIEGAIDIREIKEIRPGKTSRDFDRYQEDPAFRPDQSHCFVILYGMEFRLKTLSLQATSEDEVNMWIKGLTWLMEDTLQAPTPLQIERWLRKQFYSVDRNREDRISAKDLKNMLSQVNYRVPNMRFLRERLTDLEQRSGDITYGQFAQLYRSLMYSAQKTMDLPFLEASTLRAGERPELCRVSLPEFQQFLLDYQGELWAVDRLQVQEFMLSFLRDPLREIEEPYFFLDEFVTFLFSKENSVWNSQLDAVCPDTMNNPLSHYWISSSHNTYLTGDQFSSESSLEAYARCLRMGCRCIELDCWDGPDGMPVIYHGHTLTTKIKFSDVLHTIKEHAFVASEYPVILSIEDHCSIAQQRNMAQYFKKVLGDTLLTKPVEISADGLPSPNQLKRKILIKHKKLAEGSAYEEVPTSMMYSENDISNSIKNGILYLEDPVNHEWYPHYFVLTSSKIYYSEETSSDQGNEDEEEPKEVSSSTELHSNEKWFHGKLGAGRDGRHIAERLLTEYCIETGAPDGSFLVRESETFVGDYTLSFWRNGKVQHCRIHSRQDAGTPKFFLTDNLVFDSLYDLITHYQQVPLRCNEFEMRLSEPVPQTNAHESKEWYHASLTRAQAEHMLMRVPRDGAFLVRKRNEPNSYAISFRAEGKIKHCRVQQEGQTVMLGNSEFDSLVDLISYYEKHPLYRKMKLRYPINEEALEKIGTAEPDYGALYEGRNPGFYVEANPMPTFKCAVKALFDYKAQREDELTFIKSAIIQNVEKQEGGWWRGDYGGKKQLWFPSNYVEEMVNPVALEPEREHLDENSPLGDLLRGVLDVPACQIAIRPEGKNNRLFVFSISMASVAHWSLDVAADSQEELQDWVKKIREVAQTADARLTEGKIMERRKKIALELSELVVYCRPVPFDEEKIGTERACYRDMSSFPETKAEKYVNKAKGKKFLQYNRLQLSRIYPKGQRLDSSNYDPLPMWICGSQLVALNFQTPDKPMQMNQALFMTGRHCGYVLQPSTMRDEAFDPFDKSSLRGLEPCAISIEVLGARHLPKNGRGIVCPFVEIEVAGAEYDSTKQKTEFVVDNGLNPVWPAKPFHFQISNPEFAFLRFVVYEEDMFSDQNFLAQATFPVKGLKTGYRAVPLKNNYSEDLELASLLIKIDIFPAKENGDLSPFSGTSLRERGSDASGQLFHGRAREGSFESRYQQPFEDFRISQEHLADHFDSRERRAPRRTRVNGDNRL

Variants of: B1
Conditions: with akt1_human AKT1, P31749
Sequence of akt1_human AKT1, P31749 (P31749 whole entry): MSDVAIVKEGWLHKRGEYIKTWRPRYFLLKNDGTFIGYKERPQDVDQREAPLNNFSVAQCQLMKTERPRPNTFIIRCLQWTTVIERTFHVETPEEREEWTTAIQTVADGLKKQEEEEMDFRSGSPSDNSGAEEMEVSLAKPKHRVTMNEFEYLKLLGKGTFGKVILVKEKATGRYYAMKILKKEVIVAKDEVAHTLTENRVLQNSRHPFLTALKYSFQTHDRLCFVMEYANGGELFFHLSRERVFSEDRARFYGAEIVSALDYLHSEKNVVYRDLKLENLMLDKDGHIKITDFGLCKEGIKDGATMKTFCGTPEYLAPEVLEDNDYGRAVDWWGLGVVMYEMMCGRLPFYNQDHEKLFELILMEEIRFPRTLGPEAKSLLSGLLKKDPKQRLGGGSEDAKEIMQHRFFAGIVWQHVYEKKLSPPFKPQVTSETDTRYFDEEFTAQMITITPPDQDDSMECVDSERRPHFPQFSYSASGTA

effect of a mutation on the interaction | Variant
disrupting interaction | Y783F
decreasing interaction | Y771F
